From PMC5100913 (PLoS ONE, 2016)

Target: T1, Aha1 (yeast, UniProt Q12449 1-350)
T1 sequence (looked up): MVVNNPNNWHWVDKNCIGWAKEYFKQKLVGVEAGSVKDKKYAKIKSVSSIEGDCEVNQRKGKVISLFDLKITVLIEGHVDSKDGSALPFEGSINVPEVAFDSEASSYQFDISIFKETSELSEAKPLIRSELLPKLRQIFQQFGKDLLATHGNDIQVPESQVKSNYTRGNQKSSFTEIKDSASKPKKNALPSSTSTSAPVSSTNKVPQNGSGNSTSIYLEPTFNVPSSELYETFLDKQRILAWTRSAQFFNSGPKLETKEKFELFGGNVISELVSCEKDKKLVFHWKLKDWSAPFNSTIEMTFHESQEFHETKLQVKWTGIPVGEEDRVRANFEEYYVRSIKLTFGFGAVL
Assay: cell-based or functional assay

B1: yeast Hsp90 (natural protein)
chain: not shown
- stimulation of the chaperone's ATPase activity by Aha1 (NADH coupled enzymatic assay, hsp90:Aha1 1:2): 10 fold
